Assay [1] deals with Gaboon viper virus 1 (GaVV-1) phosphoprotein oligomerisation domain (POD), residues 67 to 178 (Gaboon viper virus 1 (GaVV-1)). The assay is described as follows: crystal structure.
Assay [2] shares this target. The experiment in a line: SEC-SAXS.
Assay [3] deals with Munia bornavirus 1 (MuBV-1) phosphoprotein oligomerisation domain (POD), residues 65 to 172 (munia bornavirus 1 (MuBV-1)). The experiment in a line: crystal structure.
Assay [4] has the same target. The assay is described as follows: SEC-SAXS.

For the substance “Gaboon viper virus 1 (GaVV-1) phosphoprotein oligomerisation domain (POD), residues 67 to 178 (domain or fragment)”, the stoichiometry N in assay [1] and in assay [2] was 4 throughout.

On to “Munia bornavirus 1 (MuBV-1) phosphoprotein oligomerisation domain (POD), residues 65 to 172 (domain or fragment)”, for which the stoichiometry N in assay [3] and in assay [4] was 4 throughout.

The record behind these values is PMC9692295.
